In patent US20250320480A1, “Immunoglobulin Cleaving Enzyme” (priority 2021, published 2025):
Entries after “also recorded” stand apart in the source; their conditions may differ.

How the values were obtained:
[1] = test system: Trastuzumab; test: Mechanism of action: time course on Trastuzumab, non-reduced SDS-PAGE; type: biochemical, human; conditions: 1:20, 0-60 minutes
Method: FIG. 6. IdeSork2.0 is acting upon IgG in a two-step mechanism. To investigate if IdeSork2.0 is hydrolyzing both heavy chains of IgG simultaneously, or acting on them individually, we incubated Trastuzumab with IdeSork2.0 (1:20) and incubated for 0-60 minutes before analyzing on a non-reduced SDS-PAGE.
IdeS is known to first hydrolyze one chain of the antibody, and upon hydrolysis thereof, have lower affinity to the second chain. As such many antibodies may be only partly hydrolyzed at the start of the reaction. IdeSORK2.0 also generates fragments with single chain cleavage, however a large proportion of these are quickly processed to full cleavage (FIG. 6).

[2] = test system: IgG2; test: Comparison to other IgG proteases: IgG2; type: biochemical; conditions: SDS-PAGE
Method: (§1) FIG. 10. IdeSork2.0 is having a similar activity compared to IdeS and IdeZ. To investigate if IdeSork2.0 is hydrolyzing IgG in a similar way as IdeS and IdeZ they were all incubated against IgG1 and IgG2 and analyzed on SDS-PAGE. The cleavage patterns look identical, with both IdeSork2.0 and IdeS having less activity towards IgG2.
(§2) To further look into the activity of IdeSORK2.0, its activity was compared with IdeS and IdeZ against both IgG1 and IgG2.

[3] = molecular target: mouse IgG1 (Mus musculus, UniProt P01868); test: Immunoglobulin specificity on SDS-PAGE: mouse IgG1; type: biochemical; conditions: 37° C., listed as IdeSork2.0
Method: (§3) FIG. 3. Specificity of IdeSork2.0. IdeSork2.0 was mixed with different antibodies and incubated o/n at 37° C. before analysis on SDS-PAGE. The enzyme itself is noted with an arrow. […] Mouse IgG1, mouse IgG2b and human IgA were not affected by IdeSork2.0.
(§4) Various antibodies and antibody based therapeutics were incubated with Xork, IdeS, or IdeZ (1:40 ratio) for 1 hour at 37° C. in PBS, with substrate concentrations ranging between 2-5 mg/mL, before being analyzed on SDS-PAGE. For kinetic studies, a substrate level of 2-200 μM IVIG was used during 10 min at 37° C. before being analyzed on a UHPLC system.

[4] = test system: human IgG1 hinge/CH2 region; test: Site of hydrolysis by IdeSORK2.0, LC-MS; type: biochemical; conditions: IgG1, IgG2, fusion proteins, LALA-mutated IgG
Method: FIG. 5. IdeSork2.0 hydrolyses the hinge of IgG at an identical site as IdeS. Commercial and non-commercial biologics were hydrolyzed with IdeSork2.0 and hydrolysis products were analyzed using LC-MS.
Several substrates (IgG1, IgG2, fusion proteins, LALA-mutated IgG) were subjected to hydrolysis by IdeSORK2.0 and the site of hydrolysis identified through LC-MS. […] This is the same site that is recognized by IdeS. The site of hydrolysis has been confirmed for etanercept, trastuzumab, cetuximab, as well as two non-commercial monoclonal antibodies.
Subunit fragments were denatured and reduced followed by reversed phase LC-MS analysis. Separation was achieved using a BioResolve RP mAb Polyphenol, 450 Å, 2.7 μm 2.1×100 mm, Waters (0.1% formic acid in water and 0.1% formic acid in 95% acetonitrile as mobile phases) and run on an Agilent 1260/1290 UHPLC system coupled to a Bruker Impact II QTOF mass spectrometer. The obtained data was evaluated in Bruker Compass DataAnalysis software using the MaxEnt algorithm for deconvolution and SNAP algorithm for determination of the monoisotopic molecular weights.

[5] = test system: pig IgG; test: Immunoglobulin specificity on SDS-PAGE: pig IgG; type: biochemical; conditions: o/n at 37° C.
Method: (§5) FIG. 11. Specificity of IdeSork2.0. IdeSork2.0 was mixed with different antibodies and incubated o/n at 37° C. before analysis on SDS-PAGE.
as §4

[6] = test system: human IgG; test: Immunoglobulin specificity on SDS-PAGE: human IgG and IgG Fc fusion proteins; type: biochemical; conditions: for Hydrolysis of human IgG and IgG Fc fusion proteins: incubated with different antibodies at 37° C., SDS-PAGE
Method: as §3, §4

[7] = test system: guinea pig IgG; test: Immunoglobulin specificity on SDS-PAGE: guinea pig IgG; type: biochemical; conditions: o/n at 37° C.
Method: as §5, §4

[8] = test system: sheep IgG; test: Immunoglobulin specificity on SDS-PAGE: sheep IgG; type: biochemical; conditions: o/n at 37° C.
Method: as §5, §4

[9] = test system: rat IgG; test: Immunoglobulin specificity on SDS-PAGE: rat IgG; type: biochemical; conditions: o/n at 37° C.
Method: as §5, §4

[10] = test system: IgG1; test: Comparison to other IgG proteases: IgG1; type: biochemical; conditions: SDS-PAGE
Method: as §1, §2

[11] = test system: casein; test: General protease activity, EnzChek protease assay; type: biochemical; conditions: casein substrate, FabULOUS 5 μg, FabRICATOR 10 μg, IdeSORK2.0 10 μg
Method: FIG. 2. General protease activity. General protease activity was measured with the EnzCHECK protease assay, using casein as a substrate.
General protease activity was determined using the EnzChek Protease Assay kit, according to manufacturer's instructions. As a positive control the general protease FabULOUS (SpeB, 5 μg) was used, and as a negative control the IgG-specific protease FabRICATOR (IdeS, 10 μg). IdeSORK2.0 was added to a total quantity of 10 μg.

[12] = molecular target: mouse IgG2a (Mus musculus, UniProt P01863); test: Immunoglobulin specificity on SDS-PAGE: mouse IgG2a; type: biochemical; conditions: 37° C.
Method: as §3, §4

[13] = test system: cow IgG; test: Immunoglobulin specificity on SDS-PAGE: cow IgG; type: biochemical
Method: as §4

mouse IgG2a, sequence (P01863 whole entry): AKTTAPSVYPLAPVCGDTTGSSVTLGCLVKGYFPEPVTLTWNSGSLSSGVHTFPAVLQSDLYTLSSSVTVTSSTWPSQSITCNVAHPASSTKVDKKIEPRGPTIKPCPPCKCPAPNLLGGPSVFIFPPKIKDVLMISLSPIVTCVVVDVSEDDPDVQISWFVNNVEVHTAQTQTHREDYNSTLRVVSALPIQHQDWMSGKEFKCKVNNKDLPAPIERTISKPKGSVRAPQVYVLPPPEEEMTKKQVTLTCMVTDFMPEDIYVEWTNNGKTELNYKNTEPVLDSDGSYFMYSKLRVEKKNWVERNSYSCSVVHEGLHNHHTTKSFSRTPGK

B1: IdeSORK2.0: SEQ ID NO: 2 (N terminal 312 amino acids of IdeSORK) with added N terminal methionine and C-terminal His6; 319 amino acids (protein)
chain: MSKRKLLKKIEKKDTSSVLTQKKQTKTLWADGVQVDDKDFKPSTENFGTNYLAAEYGIGKGYYDINKKFDGTDDDLCSGVVAANQLHWWLDRNKDYIEKYRQQSKDNGVTIGNTDIFELNKLHDEDQSNFFDFIKKSFGNKFLQPERLLNMYINGYGYLTSQDKAKTSQPSPSKLNFFQKVFKNNLLTDKTPINDIDEFSSQTKNALQNHKVLAVSFASIKNRGLGHVVTVWGADFDENGKVVALYVTDSDDRSKNIGNAKLGMKKLRIEVSAQDSSTIKLTGFEDKNSGGSLRHLYSLSTGEQIWKKYFEETHHHHHH
modifications: (IdeSORK2.0) Protein of SEQ ID NO 2 engineered to include an additional N terminal methionine and a C-terminal protein purification tag - His6
Mechanism of IgG heavy chain hydrolysis [1]: activity is mediated one chain at a time
Time course of IgG hydrolysis [1]: Most IgG is hydrolyzed within the first few minutes
Mechanism of IgG heavy chain hydrolysis ([1]; listed as IdeSork2.0): two-step reaction
Hydrolysis of IgG2 [2]: able to hydrolyze
Hydrolysis of IgG2 ([2]; listed as IdeSork2.0): less activity
Activity towards mouse IgG1 [3]: not affected
Number and position of hydrolytic sites [4]: only a single hydrolytic site was detected
Number and position of hydrolytic sites ([4]; listed as IdeSork2.0): only observed at a single site in the hinge region
Activity on pig (porcine) IgG [5]: only showed activity against horse and guinea pig IgG; also recorded: no visible effect
Hydrolysis of monoclonal IgG4 [6]: can also hydrolyze
Hydrolysis of polyclonal IgG (e.g. IVIG) [6]: near complete hydrolysis
Preference between human IgG subclasses ([6]; IgG1 versus IgG2): slight preference for IgG1 over IgG2
Effect of alterations of the hinge region (e.g. LALA-sequence) on activity ([6]; human antibodies with altered hinge): did not affect the activity
Hydrolysis of human IgG and IgG Fc fusion proteins [6]: hydrolyzing all tested human IgGs and IgG Fc fusion proteins
Hydrolysis of human IgG and IgG Fc fusion proteins ([6]; listed as IdeSork2.0): hydrolyzed
Activity on guinea pig IgG [7]: showed activity
Activity on sheep IgG [8]: only showed activity against horse and guinea pig IgG; also recorded: no visible effect
Activity on rat IgG [9]: only showed activity against horse and guinea pig IgG; also recorded: no visible effect
Hydrolysis of IgG1 [10]: able to hydrolyze
General protease activity (signal) [11]: no signs of general protease activity
General protease activity (signal) ([11]; listed as IdeSork 2.0): did not give any measurable signal
Activity towards mouse IgG2a [12]: active
Activity towards mouse IgG2a ([12]; listed as IdeSork2.0): could be hydrolyzed
Activity on cow IgG [13]: only showed activity against horse and guinea pig IgG
